The results in this text go back to patent publication US20150037333A1 (NEXVET AUSTRALIA, published 2015).

Assay [1] deals with T1, complement C1q (from normal human serum) (human, UniProt P02745 23-245; P02746 28-253; P02747 29-245).
T1 construct: Native C1q in normal human serum, detected with a C1q reactive polyclonal antibody-HRP conjugate
Briefly: C1q binding ELISA; fusion protein on plates coated with canine TNF (4 µg/ml), human serum as source of complement. As to the method: The canine TNFR-HCB, canine TNFR-HCC and human TNFR-canine HCB fusion proteins were incubated with plates pre-coated with canine TNF (4 μg/ml). For comparison, a caninised monoclonal antibody (MAb, canine isotype HCB) with specificity to nerve growth factor (NGF) was incubated with plates coated with NGF. The plates were washed and incubated with normal or heat-killed human serum as a source of complement. Binding of complement C1q was detected using a C1q reactive polyclonal antibody-HRP conjugate.
In general terms: An ELISA detects its analyte on a solid surface through an enzyme-linked reagent.

A further assay has as its target canine TNF-alpha (canine, UniProt P51742 77-233). Nature of the assay: cell-based or functional assay.

T1 sequence (P02745 23-245 limits assumed, chain 1 of 3): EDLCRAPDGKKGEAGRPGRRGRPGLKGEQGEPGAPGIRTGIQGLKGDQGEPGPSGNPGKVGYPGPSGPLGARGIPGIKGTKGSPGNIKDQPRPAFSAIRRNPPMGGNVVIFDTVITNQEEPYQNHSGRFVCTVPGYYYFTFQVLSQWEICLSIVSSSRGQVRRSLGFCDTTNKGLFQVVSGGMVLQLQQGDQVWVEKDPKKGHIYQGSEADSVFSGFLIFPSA
T1 sequence (P02746 28-253 limits assumed, chain 2 of 3): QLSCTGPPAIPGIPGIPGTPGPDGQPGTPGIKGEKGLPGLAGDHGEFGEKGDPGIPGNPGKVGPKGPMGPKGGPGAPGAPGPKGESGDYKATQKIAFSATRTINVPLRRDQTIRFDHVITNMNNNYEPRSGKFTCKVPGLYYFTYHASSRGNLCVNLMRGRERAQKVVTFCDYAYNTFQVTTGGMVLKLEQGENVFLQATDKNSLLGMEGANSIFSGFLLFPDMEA
T1 sequence (P02747 29-245 limits assumed, chain 3 of 3): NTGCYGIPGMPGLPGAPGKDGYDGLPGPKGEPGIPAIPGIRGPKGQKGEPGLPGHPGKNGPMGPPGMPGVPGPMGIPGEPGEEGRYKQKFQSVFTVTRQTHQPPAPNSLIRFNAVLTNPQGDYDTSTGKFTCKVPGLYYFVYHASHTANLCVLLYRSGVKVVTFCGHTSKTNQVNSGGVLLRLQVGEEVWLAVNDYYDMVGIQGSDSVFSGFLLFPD
Sequence of canine TNF-alpha (P51742 77-233 limits assumed): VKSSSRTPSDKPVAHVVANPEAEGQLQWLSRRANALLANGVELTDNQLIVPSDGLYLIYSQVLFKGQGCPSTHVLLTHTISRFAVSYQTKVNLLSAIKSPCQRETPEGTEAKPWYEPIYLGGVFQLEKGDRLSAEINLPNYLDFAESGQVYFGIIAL

B1: canine TNFR-HCB (caTNFRp50:ca IgGHCB Fc), SEQ ID NO:7 (Fc fusion)
chain: LVPHPRNRVKRAILCPQGKYIHPQDDSICCTKCHKGTYLYNDCPGPGLDTDCRECENGTFTASENHLRQCLSCSKCRKEMNQVEISPCTVYRDTVCGCRKNQYRFYWSETLFQCNNCSLCLNGTVQISCQEKQNTICTCHAGFFLREHECVSCVNCKKNTECGKLCLPPVETVKVPQDPGSTPKRENGRVPRPPDCPKCPAPEMLGGPSVFIFPPKPKDTLLIARTPEVTCVVVDLDPEDPEVQISWFVDGKQMQTAKTQPREEQFNGTYRVVSVLPIGHQDWLKGKQFTCKVNNKALPSPIERTISKARGQAHQPSVYVLPPSREELSKNTVSLTCLIKDFYPPDIDVEWQSNGQQEPESKYRTTPPQLDEDGSYFLYSKLSVDKSRWQRGDTFICAVMHEALHNHYTQESLSHSPGK
notes: Expressed in CHO cells; also called caTNFrecp60-HCB; canine TNFR-HCB fusion protein
On to B1, for which the binding result in assay [1] is on record as “no binding”. In addition, in the assay with canine TNF-alpha, the “inhibition of canine TNF-alpha bioactivity (1 ng/ml) in 293-HEK cells with NF-kB-EGFP reporter construct pTRH1; IC50” value was approximately 1 ng/ml.

B2: canine TNFR-HCC (caTNFRp50:ca IgGHCC Fc), SEQ ID NO:8 (Fc fusion)
chain: LVPHPRNRVKRAILCPQGKYIHPQDDSICCTKCHKGTYLYNDCPGPGLDTDCRECENGTFTASENHLRQCLSCSKCRKEMNQVEISPCTVYRDTVCGCRKNQYRFYWSETLFQCNNCSLCLNGTVQISCQEKQNTICTCHAGFFLREHECVSCVNCKKNTECGKLCLPPVETVKVPQDPGSTAKECECKCNCNNCPCPGCGLLGGPSVFIFPPKPKDILVTARTPTVTCVVVDLDPENPEVQISWFVDSKQVQTANTQPREEQSNGTYRVVSVLPIGHQDWLSGKQFKCKVNNKALPSPIEEIISKTPGQAHQPNVYVLPPSRDEMSKNTVTLTCLVKDFFPPEIDVEWQSNGQQEPESKYRMTPPQLDEDGSYFLYSKLSVDKSRWQRGDTFICAVMHEALHNHYTQISLSHSPGK
notes: Expressed in CHO cells; also called caTNFrecp60-HCC; canine TNFR-HCC fusion protein
For the molecule B2, the binding result in assay [1] was “no binding”. Moreover, the “inhibition of canine TNF-alpha bioactivity (1 ng/ml) in 293-HEK cells with NF-kB-EGFP reporter construct pTRH1; IC50” value with canine TNF-alpha is approximately 1 ng/ml.
